Where two headings read alike, the source gives them in different places.
Legend:
[1] = system: lymphocytes (non-cancer cells); test: Cytotoxicity in non-cancer cells in vitro (TOX8 viability, 72 h); type: cell-based
Procedure: (§1) Human breast cancer cells, MDA 231 and BT 474, were grown in tissue culture to assay for the concentration at which 50% of the cells are inhibited from growing (IC50). The cells were seeded in 96-well plates at 5000 cells per well and grown overnight in RPMI 1640 supplemented with 10% fetal bovine serum and 15 μg/ml insulin. The culture medium was replaced. The recombinant cucurmosin, natural cucurmosin and vinblastine were added to the cells at various concentrations. Likewise, the non-cancer cells, LO2 and lymphocytes were treated with these drugs at different concentrations. The cells were grown for an additional 72 hours and then 20 μl of TOX8 was added to each well. The cells were incubated another 8 hours at 37° C., 5% CO2 to allow time for the cells to metabolize the TOX8 indicator. Absorbance readings at 600 nm were taken of each well. Viability was indicated by a drop in absorbance at 600 nm readings.

[2] = system: LO2 non-cancer cells; test: as above; type: cell-based
Procedure: as §1

[3] = system: MDA 231 human breast cancer cells; test: Cytotoxicity in cancer cells in vitro (TOX8 viability, 72 h); type: cell-based
Procedure: as §1

[4] = system: BT 474 human breast cancer cells; test: as above; type: cell-based; details: TB474 (BT 474) cells
Procedure: as §1

[5] = system: HMEL tumors; test: Treating HMEL tumors in mice by tail vein injection; type: in vivo, NOD/SCID mice
Procedure: (§2) Human lung cancer cells, […] or A549, were used to induce tumor formation in backs of NOD/SCID mice (JAX, #001303). The cells were maintained in culture. In each experiment, 5 million cells were injected into the back of the mice. Tumors formed in 2 to 3 weeks. Tumor sizes were measured using a digital caliper and then areas calculated.
(§3) In one experiment, either 5 or 50 μg recombinant cucurmosin was injected into the HMEL tumors in 100 μl of saline solution on the days that the tumors were measured. Mouse 2 had tumors in both sides of its back which were each treated separately. Over the 18 day period, the mouse injected with no cucurmosin saw its tumor increase 267% (TABLE 2). […] Mouse 1 and 3 with HMEL tumors after 18 days intratumoral treatment (Table 2), were continually administered recombinant cucurmosin by tail vein injection using 50 μg of recombinant cucurmosin in 100 μl saline solution at day 0 (the same day as day 18 of intratumoral treatment) and day 5. […] The results of these tests are depicted in FIG. 1.

[6] = system: A549 tumors; test: Treating A549 tumors in mice, intratumoral injection; type: in vivo, NOD/SCID mice; details: for Tumor growth: Day 1 to Day 11
Procedure: as §2
In another group of mice, carrying tumors derived from A549 cells, 5 or 50 μg treatments of directly injected recombinant cucurmosin into the tumors was able to reduce tumors by 15 and 33%, respectively while the negative control saw the tumor grow 150% (TABLE 3).

[7] = system: HMEL tumors; test: Treating HMEL tumors in mice, intratumoral injection; type: in vivo, NOD/SCID mice; details: for Tumor growth: over 18 days
Procedure: as §2, §3

**Q.** What does the source list for CC[C@]1(O)C[C@@H]2CN(CCc3c([nH]c4ccccc34)[C@@](C(=O)OC)(c3cc4c(cc3OC)N(C)[C@H]3[C@@](O)(C(=O)OC)[C@H](OC(C)=O)[C@]5(CC)C=CCN6CC[C@]43[C@@H]65)C2)C1 [Vinblastine, reference compound]?
**A.** IC50 ([1]; Lymphocyte): 73 nM; IC50 [2]: 68 nM; IC50 ([3]; Homo sapiens, MDA-MB-231, MDA231 cells): 25 nM; IC50 ([4]; Homo sapiens): 26 nM

B1: Recombinant Cucurmosin: 297 amino acid pro-cucurmosin (SEQ ID 4), type 1 ribosome inactivating protein expressed in E. coli with C-terminal histidine tag (protein, listed as Cucurbita moschata)
chain: MNVRFDLSSATSSSYKTFIKNLREALPKDGKVYDIPVLLSTVMDSRRFILIDLVNYDGQSITAAIDVLNVYIVAYSTGTVSYFFQQVPAQAPKLLFKGTQQRTLPYTGNYENLQTAAKKLRENIELGLPALDSAITTLFHYNAEAAASALLVLIQTTSEAARFRYIELQIANNVGTKFKPSQTIISLENNWSALSKQIQIAKNKNGQFETPVILIDPQGNRVQITNVTSNVVTQNIKLLLNIGATVDTMAANDDVDEMTSGVPIRLSSCGHEMERKSVENGRHANYVSVLEHHHHHH
modifications: C-terminal His tag
**Q.** How did the IC50 [1] turn out when B1 was run?
**A.** The IC50 was 2500 nM.

**Q.** What about the IC50 [2] of the same molecule?
**A.** Its IC50 is 1200 nM.

**Q.** What about the “Toxic effects on the mice” value ([5]; 50 μg tail vein injection) of the same molecule?
**A.** The value was “no obvious toxic effects”.

**Q.** What about the Tumor size increase ([5]; Mouse 3, 50 μg tail vein at day 0 and day 5, seven days after initial injection) of the same molecule?
**A.** The Tumor size increase was 7%.

**Q.** What about the Tumor reduction ([6]; 5 μg directly injected into the tumors) of the same molecule?
**A.** The Tumor reduction was 15%.

**Q.** And the Tumor reduction ([6]; 50 μg directly injected into the tumors)?
**A.** Its Tumor reduction is 33%.

**Q.** What about the “Tumor Size” value ([6]; Mouse 2, 5 μg intratumoral, Day 1) of the same molecule?
**A.** The value was 34.7 mm^2.

**Q.** And the Tumor growth ([6]; Mouse 2, 5 μg intratumoral)?
**A.** Its Tumor growth is −15%.

**Q.** What about the “Tumor Size” value ([6]; Mouse 2, 5 μg intratumoral, Day 3) of the same molecule?
**A.** The value was 38.8 mm^2.

**Q.** And the “Tumor Size” value ([6]; Mouse 2, 5 μg intratumoral, Day 5)?
**A.** Its value is 42.4 mm^2.

**Q.** What about the “Tumor Size” value ([6]; Mouse 2, 5 μg intratumoral, Day 7) of the same molecule?
**A.** The value was 40.8 mm^2.

**Q.** What about the “Tumor Size” value ([6]; Mouse 2, 5 μg intratumoral, Day 9) of the same molecule?
**A.** The value was 39.5 mm^2.

**Q.** And the “Tumor Size” value ([6]; Mouse 2, 5 μg intratumoral, Day 11)?
**A.** The value was 29.5 mm^2.

**Q.** And the “Tumor Size” value ([6]; Mouse 3, 50 μg intratumoral, Day 1)?
**A.** Its value is 100.6 mm^2.

**Q.** And the Tumor growth ([6]; Mouse 3, 50 μg intratumoral)?
**A.** The Tumor growth was −33%.

**Q.** And the “Tumor Size” value ([6]; Mouse 3, 50 μg intratumoral, Day 3)?
**A.** Its value is 104.1 mm^2.

**Q.** What about the “Tumor Size” value ([6]; Mouse 3, 50 μg intratumoral, Day 5) of the same molecule?
**A.** Its value is 108.6 mm^2.

**Q.** And the “Tumor Size” value ([6]; Mouse 3, 50 μg intratumoral, Day 7)?
**A.** Its value is 113.1 mm^2.

**Q.** What about the “Tumor Size” value ([6]; Mouse 3, 50 μg intratumoral, Day 9) of the same molecule?
**A.** The value was 78.8 mm^2.

**Q.** What about the “Tumor Size” value ([6]; Mouse 3, 50 μg intratumoral, Day 11) of the same molecule?
**A.** The value was 67.3 mm^2.

**Q.** And the IC50 ([3]; MDA231 cells)?
**A.** Its IC50 is 23 nM.

**Q.** What about the IC50 ([3]; MDA231 cells, listed as recombinant cucurmosin) of the same molecule?
**A.** The IC50 was > 20 nM.

**Q.** And the IC50 [4]?
**A.** Its IC50 is 22 nM.

**Q.** What about the IC50 ([4]; listed as recombinant cucurmosin) of the same molecule?
**A.** Its IC50 is > 20 nM.

**Q.** And the Side-effects in mice ([7]; 5 or 50 μg intratumoral, 18 days)?
**A.** The Side-effects in mice was “did not suffer any noticeable side-effects”.

**Q.** What about the “Tumor Size” value ([7]; Mouse 2 left, 5 μg intratumoral, Day 1) of the same molecule?
**A.** Its value is 39.4 mm^2.

**Q.** And the “Tumor Size” value ([7]; Mouse 2 left, 5 μg intratumoral, Day 3)?
**A.** The value was 33 mm^2.

**Q.** And the “Tumor Size” value ([7]; Mouse 2 left, 5 μg intratumoral, Day 5)?
**A.** Its value is 23 mm^2.

**Q.** What about the “Tumor Size” value ([7]; Mouse 2 left, 5 μg intratumoral, Day 8) of the same molecule?
**A.** The value was 19.7 mm^2.

**Q.** And the “Tumor Size” value ([7]; Mouse 2 left, 5 μg intratumoral, Day 15)?
**A.** Its value is 12.5 mm^2.

**Q.** And the “Tumor Size” value ([7]; Mouse 2 left, 5 μg intratumoral, Day 18)?
**A.** The value was 0 mm^2.

**Q.** And the Tumor growth ([7]; Mouse 2 left, 5 μg intratumoral)?
**A.** Its Tumor growth is −100%.

**Q.** And the “Tumor Size” value ([7]; Mouse 2 right, 5 μg intratumoral, Day 1)?
**A.** The value was 27.8 mm^2.

**Q.** And the “Tumor Size” value ([7]; Mouse 2 right, 5 μg intratumoral, Day 3)?
**A.** Its value is 24.8 mm^2.

**Q.** What about the “Tumor Size” value ([7]; Mouse 2 right, 5 μg intratumoral, Day 5) of the same molecule?
**A.** Its value is 18.5 mm^2.

**Q.** What about the “Tumor Size” value ([7]; Mouse 2 right, 5 μg intratumoral, Day 8) of the same molecule?
**A.** Its value is 12.2 mm^2.

**Q.** And the “Tumor Size” value ([7]; Mouse 2 right, 5 μg intratumoral, Day 15)?
**A.** The value was 0 mm^2.

**Q.** And the “Tumor Size” value ([7]; Mouse 2 right, 5 μg intratumoral, Day 18)?
**A.** Its value is 0 mm^2.

**Q.** What about the Tumor growth ([7]; Mouse 2 right, 5 μg intratumoral) of the same molecule?
**A.** Its Tumor growth is −100%.

**Q.** And the “Effect on tumor growth compared to the negative control” value ([7]; Mouse 3 (largest tumor), 5 μg intratumoral)?
**A.** Its value is “slow the tumor growth compared to the negative control”.

**Q.** And the “Tumor Size” value ([7]; Mouse 3, 5 μg intratumoral, Day 1)?
**A.** Its value is 162.2 mm^2.

**Q.** What about the “Tumor Size” value ([7]; Mouse 3, 5 μg intratumoral, Day 3) of the same molecule?
**A.** The value was 158 mm^2.

**Q.** What about the “Tumor Size” value ([7]; Mouse 3, 5 μg intratumoral, Day 5) of the same molecule?
**A.** The value was 151.8 mm^2.

**Q.** And the “Tumor Size” value ([7]; Mouse 3, 5 μg intratumoral, Day 8)?
**A.** The value was 186.7 mm^2.

**Q.** And the “Tumor Size” value ([7]; Mouse 3, 5 μg intratumoral, Day 15)?
**A.** The value was 206.7 mm^2.

**Q.** What about the “Tumor Size” value ([7]; Mouse 3, 5 μg intratumoral, Day 18) of the same molecule?
**A.** Its value is 231.2 mm^2.

**Q.** What about the Tumor growth ([7]; Mouse 3, 5 μg intratumoral) of the same molecule?
**A.** The Tumor growth was 43%.

**Q.** And the “Tumor Size” value ([7]; Mouse 4, 50 μg intratumoral, Day 1)?
**A.** The value was 23.9 mm^2.

**Q.** What about the “Tumor Size” value ([7]; Mouse 4, 50 μg intratumoral, Day 3) of the same molecule?
**A.** The value was 12.2 mm^2.

**Q.** And the “Tumor Size” value ([7]; Mouse 4, 50 μg intratumoral, Day 5)?
**A.** The value was 9.4 mm^2.

**Q.** And the “Tumor Size” value ([7]; Mouse 4, 50 μg intratumoral, Day 8)?
**A.** The value was 0 mm^2.

**Q.** What about the “Tumor Size” value ([7]; Mouse 4, 50 μg intratumoral, Day 15) of the same molecule?
**A.** Its value is 0 mm^2.

**Q.** What about the “Tumor Size” value ([7]; Mouse 4, 50 μg intratumoral, Day 18) of the same molecule?
**A.** Its value is 0 mm^2.

**Q.** And the Tumor growth ([7]; Mouse 4, 50 μg intratumoral)?
**A.** The Tumor growth was −100%.

**Q.** What about the “Effect on tumors smaller than 40 mm^2” value ([7]; either 5 or 50 μg intratumoral, 18 day period) of the same molecule?
**A.** The value was “completely abrogated”.
